Numbering of substitutions follows the chain as printed.
Key:
[1] = molecular target: T1, BCMA on cells (293T cells transfected with BCMA; H929, MM.1S and U266 cell lines expressing BCMA) (human, UniProt Q02223 1-184); assay: flow cytometry, H929 cells
T1 construct: H929, MM.1S and U266 carry the native protein; also called B-cell Maturation Antigen; TNFRSF17
T1 sequence: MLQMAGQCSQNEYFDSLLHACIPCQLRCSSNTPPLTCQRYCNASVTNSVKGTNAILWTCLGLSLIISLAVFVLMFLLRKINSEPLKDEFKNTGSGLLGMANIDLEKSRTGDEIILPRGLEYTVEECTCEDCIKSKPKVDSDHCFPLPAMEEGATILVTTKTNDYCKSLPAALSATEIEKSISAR

[2] = molecular target: T2, cyno BCMA with a His tag (ACROBiosystems, Catalog No.: BCA-052H7) (cyno); assay: ELISA, plate-coated cyno BCMA-His
T2 construct: Bought His-tagged recombinant protein
T2 sequence (chain, as listed by the source limits assumed): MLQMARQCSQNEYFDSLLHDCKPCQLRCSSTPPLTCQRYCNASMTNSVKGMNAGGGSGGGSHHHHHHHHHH
Method: (§1) The recombinantly expressed antibodies were used to assess binding activity to BCMA of different species origins by conventional ELISA according to the known art. Recombinant human BCMA, cyno BCMA, and mouse BCMA were coated onto ELISA plates to detect binding at serially diluted concentrations of the anti-BCMA antibody preparations.
(§2) The ability for antibodies of the present disclosure to bind human BCMA was measured with an ELISA assay. For the BCMA binding assay, a 96-well plate (Nunc) is coated with human BCMA with a His tag (ACROBiosystems, Catalog No.: AC108P1-180611F2-Bulk, SEQ ID NO:2) at 0.2 μg/well overnight at 4° C. Wells are blocked for 2 h with blocking buffer (PBS containing 3% bovine serum albumin). Wells are washed three times with PBS containing 0.1% Tween-20. Anti-human BCMA antibodies of the present disclosure or control IgG (100 μL) is then added and incubated at room temperature for 1 h. After washing, the plate is incubated with 100 μL of goat anti-mouse IgG Fcγ Fragment Specific-HRP conjugate (Jackson ImmunoResearch) at room temperature for 1 h. The plates are washed and then incubated with 100 μL of 3,3′,5,5′-tetra-methylbenzidine. The absorbance at 450 nm is read on a microplate reader. The half maximal effective concentration (EC50) is calculated using GraphPad Prism 6 software.
In experiments performed essentially as described above, anti-human BCMA antibodies of the present disclosure bind cyno BCMA with a His tag (ACROBiosystems, Beijing, China, Catalog No.: BCA-052H7, SEQ ID NO:110) with an EC50 values shown in Table 4.

[3] = molecular target: T3, mouse BCMA with a His tag (ACROBiosystems, Catalog No.: BCA-M52H3) (mouse); assay: ELISA, plate-coated mouse BCMA-His
T3 construct: Bought His-tagged recombinant protein
T3 chain: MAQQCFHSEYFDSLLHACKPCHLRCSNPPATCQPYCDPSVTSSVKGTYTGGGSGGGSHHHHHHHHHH
Method: as §1, §2
In experiments performed essentially as described above, anti-human BCMA antibodies of the present disclosure bind mouse BCMA with a His tag (ACROBiosystems, Beijing, China, Catalog No.: BCA-M52H3, SEQ ID NO:109) with an EC50 values shown in Table 5.

[4] = molecular target: T4, human BCMA with a His tag (ACROBiosystems, Catalog No.: BCA-H522y) (human); assay: SPR, Biacore T200
T4 construct: Bought His-tagged recombinant protein; also called huBCMA-His; Recombinant human BCMA
T4 chain: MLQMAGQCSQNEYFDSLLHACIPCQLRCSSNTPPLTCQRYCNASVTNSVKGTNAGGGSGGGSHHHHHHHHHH
Method: The binding affinity of select anti-BCMA was measured on a surface plasmon resonance (SPR) instrument, Biacore T200™, against human BCMA by a method known in the art.
In experiments performed essentially as described above, a subset of anti-human BCMA antibodies of the present disclosure bind human BCMA with a His tag (ACROBiosystems, Beijing, China, Catalog No.: BCA-H522y, SEQ ID NO:2) with affinity shown in Table 6.

[5] = molecular target: T1, BCMA on cells (293T cells transfected …); assay: flow cytometry, H929 cells; remark: listed apart in the source
Method: A cell line expressing BCMA, H929, was used to assess binding by anti-BCMA antibodies on the native protein on the cell surface by flow cytometry according to the known art. A subset of anti-human BCMA antibodies were assayed for binding to H929 and the fraction of cells bound the labeled antibody above background defined by control is shown in Table 8.

[6] = molecular target: T1, BCMA on cells (293T cells transfected …); assay: flow cytometry, 293T cells transfected with BCMA, above parental 293T background
[7] = molecular target: T4, human BCMA with a His tag …; assay: ELISA, plate-coated human BCMA-His
Method: as §1, §2
In experiments performed essentially as described above, anti-human BCMA antibodies of the present disclosure bind human BCMA with a His tag (ACROBiosystems, Beijing, China, Catalog No.: BCA-H522y, SEQ ID NO:2) with an EC50 values shown in Table 3.

B1: SCT-Aa13(m/m) (antibody, V domains shown)
VH: QVQLQQSDAELVKPGASVKISCKVSGYTFTDYTIHWMKQRPEQGLEWIGYIYPRDGSTKYNEKFKGKATLTADKSSSTAYMQLNSLTSEDSAVYFCARWDYEGFDYWGQGTTLTVSS
VL: DIVMTQSPATLSVTPGDRVSLSCRASQSISDYLHWYQQKSHESPRLLIKYASQSISGIPSRFSGSGSGSDFTLSINSVEPEDVGVYYCQNGHSFPPTFGSGTKLEIK
notes: Full IgG format: mouse IgG1 heavy chain constant region, mouse kappa light chain constant region
Mean fluorescent intensity [1]: 2560
EC50 [2]: 0.174 µg/mL
EC50 [3]: 0.529 µg/mL
Kd [4]: 43.8 nM
koff [4]: 0.0358 s⁻¹
kon [4]: 817000 M⁻¹ s⁻¹
Positive (%) [5]: 99.9%
Positive (%) [6]: 84.4%
EC50 [7]: 0.00264 µg/mL

B2: SCT-Aa12(m/m) (antibody, V domains shown)
VH: B1 VH with Y52F, R54S, E89D
VL: B1 VL with H34N
notes: as for B1
Mean fluorescent intensity [1]: 3480
EC50 [2]: 9.74 µg/mL
EC50 [3]: 0.0107 µg/mL
Kd [4]: 5.01 nM
koff [4]: 0.011 s⁻¹
kon [4]: 2.2e+06 M⁻¹ s⁻¹
Positive (%) [5]: 99.9%
Positive (%) [6]: 85.7%
EC50 [7]: 0.0017 µg/mL

B3: SCT-Aa09(m/m) (antibody, V domains shown)
VH: B1 VH with Y32H, I51F, G56D, S57N, K74R
VL: B1 VL with S30R
notes: as for B1
Mean fluorescent intensity [1]: 102
EC50 [2]: 5.57 µg/mL
Kd [4]: 76.6 nM
koff [4]: 0.127 s⁻¹
kon [4]: 1.66e+06 M⁻¹ s⁻¹
Positive (%) [5]: 18.4%
Positive (%) [6]: 16.9%
EC50 [7]: 0.00196 µg/mL

B4: SCT-Aa01(m/m) (antibody, V domains shown)
VH: DVQLQESGPGLVKPSQSLSLTCSVTGYSITSGYYWNWIRQFPGNKLEWMGYIRYDGSNNYNPSLKNRISITRDTSKNQFFLKLNSVTTEDTATYYCAPYDYDYAMDFWGQGTSVTVSS
VL: DIQMTQSPASLSASVGETVTITCRASGNIHNYLAWYQQKQGKSPQLLVYNAKTLAHGVPSRFSGSGSGTQYSLKITSLQPEDFGTYYCQHFWSTPFTFGSGTKLEIK
notes: as for B1
Mean fluorescent intensity [1]: 2090
EC50 [2]: 0.0057 µg/mL
Kd [4]: 68.6 nM
koff [4]: 0.0175 s⁻¹
kon [4]: 255000 M⁻¹ s⁻¹
Positive (%) [5]: 99.8%
Positive (%) [6]: 48.2%
EC50 [7]: 0.00292 µg/mL

B5: SCT-Aa05(m/m) (antibody, V domains shown)
VH: EVKLLQSGGGLVQPGGSLKLSCAASGIDFSRYWMSWVRRAPGKGLEWIGEINPDSSTINYAPSLKDKFIISRDNAKNTLYLQMSKVRSEDTGLYYCASLYYDYEREYGMDYWGQGTSVTVSS
VL: DIVMTQSQKFMSTSVGDRVSVTCKASQNVGTNVAWYQQKPGQSPKALIYSASYRFSGVPDRFTGSGSGTDFTLTISNVQSEDLAEYFCQQYNSYPYTFGGGTKLEIK
notes: as for B1
Mean fluorescent intensity [1]: 2020
EC50 [3]: 0.0522 µg/mL
Kd [4]: 4.91 nM
koff [4]: 0.00034 s⁻¹
kon [4]: 69200 M⁻¹ s⁻¹
Positive (%) [5]: 99.9%
Positive (%) [6]: 94.3%
EC50 [7]: 0.00212 µg/mL

B6: SCT-Aa03(m/m) (antibody, V domains shown)
VH: EVKLLQSGGGLVQPGGSLKLSCAASGIDFSRYWMSWVRRAPGKGLEWIGEINPDSSTINYAPSLKDKFIISRDNAKNTLYLQMSKVRSEDTALYYCASFYYDYDHAMDYWGQGTSVTVSS
VL: B5 VL with V19F, Y96F, G100S
notes: as for B1
Mean fluorescent intensity [1]: 3920
EC50 [3]: 0.0791 µg/mL
Kd [4]: 11.7 nM
koff [4]: 0.00263 s⁻¹
kon [4]: 224000 M⁻¹ s⁻¹
Positive (%) [5]: 99.9%
Positive (%) [6]: 91.6%
EC50 [7]: 0.00171 µg/mL

B7: SCT-Aa03(h/h) (antibody, V domains shown)
VH: B6 VH
VL: B5 VL with V19F, Y96F, G100S
notes: Full IgG format, chimeric: human IgG1 heavy chain constant region, human kappa light chain constant region
Mean fluorescent intensity [1]: 1070
EC50 [2]: 1.6 µg/mL
EC50 [3]: 0.0108 µg/mL
Kd [4]: 9.49 nM
koff [4]: 0.00284 s⁻¹
kon [4]: 299000 M⁻¹ s⁻¹
Positive (%) [5]: 98.2%
Positive (%) [6]: 75.1%
EC50 [7]: 0.00346 µg/mL

B8: SCT-Aa02(m/m) (antibody, V domains shown)
VH: B5 VH with Y60S, K65E, G92A, E106D, G108A, T116A
VL: B5 VL with N92H, Y96F
notes: as for B1
Mean fluorescent intensity [1]: 4560
EC50 [2]: 0.0891 µg/mL
EC50 [3]: 0.00262 µg/mL
Kd [4]: 0.388 nM
koff [4]: 0.000113 s⁻¹
kon [4]: 292000 M⁻¹ s⁻¹
Positive (%) [5]: 100%
Positive (%) [6]: 96.3%
EC50 [7]: 0.00286 µg/mL

B9: SCT-Aa05(h/h) (antibody, V domains shown)
VH: B5 VH
VL: B5 VL
notes: as for B7
Mean fluorescent intensity [1]: 758
EC50 [3]: 0.0295 µg/mL
Kd [4]: 9.93 nM
koff [4]: 0.000995 s⁻¹
kon [4]: 100000 M⁻¹ s⁻¹
Positive (%) [5]: 96.5%
Positive (%) [6]: 76.3%
EC50 [7]: 0.00235 µg/mL

B10: SCT-Aa02(h/h) (antibody, V domains shown)
VH: B5 VH with Y60S, K65E, G92A, E106D, G108A, T116A
VL: B5 VL with N92H, Y96F
notes: as for B7
Mean fluorescent intensity [1]: 1280
EC50 [2]: 0.0433 µg/mL
Kd [4]: 1.22 nM
koff [4]: 0.000374 s⁻¹
kon [4]: 306000 M⁻¹ s⁻¹
Positive (%) [5]: 99.2%
Positive (%) [6]: 81.9%
EC50 [7]: 0.00285 µg/mL

B11: SCT-Aa04(h/h) (antibody, V domains shown)
VH: B5 VH with G92A, L99F, E104D, E106G, Y107A, G108A
VL: B5 VL with F55Y
notes: as for B7
Mean fluorescent intensity [1]: 623
EC50 [3]: 0.27 µg/mL
Kd [4]: 32.6 nM
koff [4]: 0.034 s⁻¹
kon [4]: 1.04e+06 M⁻¹ s⁻¹
Positive (%) [5]: 96.5%
Positive (%) [6]: 72%
EC50 [7]: 0.00248 µg/mL

B12: SCT-Aa04(m/m) (antibody, V domains shown)
VH: B5 VH with G92A, L99F, E104D, E106G, Y107A, G108A
VL: B5 VL with F55Y
notes: as for B1
Mean fluorescent intensity [1]: 3790
EC50 [2]: 2.05 µg/mL
EC50 [3]: 0.0343 µg/mL
Kd [4]: 5.62 nM
koff [4]: 0.0126 s⁻¹
kon [4]: 2.25e+06 M⁻¹ s⁻¹
Positive (%) [5]: 99.9%
Positive (%) [6]: 88.9%
EC50 [7]: 0.00232 µg/mL
